According to patent US20240376207A1 (JIANGSU HENGRUI PHARMACEUTICALS, published 2024):
Where two headings read alike, the source gives them in different places. Each block holds one binder with its values, some of them ahead of it.

Legend:
[1] = target: T1, human PVRIG expressed on cells (human, UniProt Q6DKI7 41-326); assay: cell-based or functional assay
T1 sequence (looked up): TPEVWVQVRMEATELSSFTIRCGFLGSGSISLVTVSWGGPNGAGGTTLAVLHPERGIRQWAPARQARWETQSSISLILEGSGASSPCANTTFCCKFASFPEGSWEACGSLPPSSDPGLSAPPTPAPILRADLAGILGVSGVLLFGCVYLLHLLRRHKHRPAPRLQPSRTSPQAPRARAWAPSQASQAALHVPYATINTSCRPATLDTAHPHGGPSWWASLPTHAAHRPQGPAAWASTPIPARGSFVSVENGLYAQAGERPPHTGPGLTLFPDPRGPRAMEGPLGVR

[2] = target: T2, cynomolgus monkey PVRIG expressed on cells (cynomolgus monkey, UniProt A0A2K5WVV8 1-322); assay: FACS, HEK293 cells overexpressing target
T2 construct: whole, on cells; also called Monkey PVRIG FACS; cells overexpressing cynomolgus monkey PVRIG
T2 sequence: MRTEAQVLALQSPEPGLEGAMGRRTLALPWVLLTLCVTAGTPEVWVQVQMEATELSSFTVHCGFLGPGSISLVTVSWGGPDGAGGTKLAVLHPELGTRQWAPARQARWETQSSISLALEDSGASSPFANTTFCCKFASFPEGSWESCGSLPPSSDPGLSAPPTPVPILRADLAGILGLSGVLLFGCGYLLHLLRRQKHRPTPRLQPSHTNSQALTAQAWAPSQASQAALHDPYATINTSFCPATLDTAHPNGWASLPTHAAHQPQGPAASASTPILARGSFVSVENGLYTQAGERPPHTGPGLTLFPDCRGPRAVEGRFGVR
From the text: A flow cytometer (FACS) was used to detect binding properties of anti-PVRIG antibodies. A cell strain overexpressing human or cynomolgus monkey PVRIG was constructed, and after the addition of the antibody, the activity of the binding of the antibody to the antigen was detected by the addition of a secondary antibody.
The expression plasmid carrying human or cynomolgus monkey PVRIG gene sequence was transfected into HEK293 cells, and the over-expressing stable transfection monoclonal cell strain was obtained by antibiotic screening and infinite dilution. Overexpressing cells were seeded into a 96-well plate at 2×10⁵ cells/per well. The cells were centrifuged at 300 g for 5 min, the supernatant was then removed, 100 μL of the test antibody was added, and the mixture was incubated at 4° C. for 1 h. The mixture was centrifuged, the supernatant was removed, the plate was washed 3 times with 200 μL of wash buffer (PBS+2% FBS), and then 100 μL of an anti-human IgG secondary antibody (Invitrogen, A-11013) labeled with Alexa Fluor 488 diluted at 1:500 was added. The mixture was incubated at 4° C. for 1 h. The plate was centrifuged, and the supernatant was removed. The plate was washed 3 times with 200 μL of wash buffer (PBS+2% FBS). The cells were resuspended in 100 μL of PBS and tested on a flow cytometer (BD FACS Calibur or BD FACS Canto_II).

[3] = target: T3, mouse IgG2a Fc-tagged human PVRIG (h-PVRIG-mIgG2a Fc) recombinant protein (human, UniProt Q6DKI7 41-171, limits assumed); assay: competition ELISA; human PVRIG coated, competitor human PVRL2
T3 construct: bought from Acrobiosystems; not shown: mouse IgG2a Fc tag
T3 sequence (looked up): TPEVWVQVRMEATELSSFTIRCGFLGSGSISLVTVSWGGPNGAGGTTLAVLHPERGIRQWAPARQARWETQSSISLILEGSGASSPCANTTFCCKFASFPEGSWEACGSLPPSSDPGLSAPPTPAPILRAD
Procedure: (§1) The h-PVRIG-mIgG2a Fc protein (at a concentration of 1 μg/mL) was coated on the 96-well microplate at 100 μL per well, and incubated overnight at 4° C. The plate was washed three times with wash buffer at 250 μL per well. For each wash, the plate was shaken for 10 s to ensure adequate cleaning. A blocking solution was added at 300 μL/well, and the plate was incubated at room temperature for 1 h. The plate was washed three times with wash buffer at 250 μL per well. For each wash, the plate was shaken for 10 s to ensure adequate cleaning. 50 μL of diluted test anti-PVRIG antibody and 50 μL of his-tagged ligand PVRL2 were added to each well, and the plate was incubated at 37° C. for 1 h. The plate was washed three times with wash buffer at 250 μL per well. The HRP-labeled anti-his-tagged secondary antibody (Genscrpit) diluted at 1:2000 was added at 100 μL per well. The plate was incubated at 37° C. for 1 h. The plate was washed three times with wash buffer at 250 μL per well. TMB was added at 100 μL/well, and the plate was incubated in the dark for 15 min. 0.16 M sulfuric acid was added at 50 μL/well. OD values at 450 nm were measured using a Thermo MμtLtiSkanFc microplate reader, and the IC₅₀ values of the anti-PVRIG antibodies blocking the binding of PVRIG to PVRL2 were calculated.
Binding of the humanized anti-PVRIG/TIGIT bispecific antibodies to human and cynomolgus monkey PVRIG and their blocking of the ligand of human PVRIG were detected according to the methods of Examples 4, 5 and 6.

[4] = target: T4, human TIGIT recombinant protein (human, UniProt Q495A1 22-141, limits assumed); assay: competition ELISA; human TIGIT, competitor human PVR
T4 construct: construct not described; also called human TIGT recombinant protein
T4 sequence (looked up): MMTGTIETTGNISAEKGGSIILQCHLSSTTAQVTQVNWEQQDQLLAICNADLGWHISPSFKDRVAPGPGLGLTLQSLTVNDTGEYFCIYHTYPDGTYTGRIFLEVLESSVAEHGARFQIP
Procedure: as §1
Similarly to Examples 4, 5 and 6, the binding of humanized anti-PVRIG/TIGIT bispecific antibodies to human and cynomolgus monkey TIGIT and blocking of binding of human TIGIT to ligand were detected, where PVRIG protein was replaced with TIGIT and PVRL2 was replaced with PVR.

[5] = target: T1, human PVRIG expressed on cells; assay: cell-based or functional assay; remark: listed apart in the source

EC50 [2]: 0.02 nM
B1: anti-PVRIG antibody 30 (antibody, human IgG4 S228P, F234A L235A, V domains shown)
VH: HVQLVESGGGSVQAGGSLRLSCEASGYSYSGDCMGWFRRAPGKERDEGVATIDNAGRIKYADSVKGRFTISHGNGKYILYLQMNSLKPEDTDMYYCAAGWTFGGNCSPADWGQGTQVTVSS
notes: no light chain
NK92 killing of K562, killing activity (%), 4 nM antibody [1]: 10.4% | NK92 killing of K562, killing activity (%), 20 nM antibody [1]: 11.9% | NK92 killing of K562, killing activity (%), 100 nM antibody [1]: 13.3%

IC50 [3]: 0.628 nM | IC50 [4]: 1.02 nM
B2: humanized anti-PVRIG/TIGIT bispecific antibody 1708-20H5 (bispecific antibody, human IgG4 S228P, kappa)
heavy: not shown
light: DIQMTQSPSSLSASVGDRVTITCRASENIYSYLAWYQQKPGKSPKLLIYNARTLAEGVPSRFSGSGSGTDFTLTISSLQPEDFATYYCQYHSGSPLPFGGGTKVEIKRTVAAPSVFIFPPSDEQLKSGTASVVCLLNNFYPREAKVQWKVDNALQSGNSQESVTEQDSKDSTYSLSSTLTLSKADYEKHKVYACEVTHQGLSSPVTKSFNRGEC

IC50 [3]: 0.552 nM | IC50 [4]: 1.01 nM
B3: humanized anti-PVRIG/TIGIT bispecific antibody 1708-30H2 (bispecific antibody, human IgG4 S228P, kappa)
heavy: not shown
light: DIQMTQSPSSLSASVGDRVTITCRASENIYSYLAWYQQKPGKSPKLLIYNARTLAEGVPSRFSGSGSGTDFTLTISSLQPEDFATYYCQYHSGSPLPFGGGTKVEIKRTVAAPSVFIFPPSDEQLKSGTASVVCLLNNFYPREAKVQWKVDNALQSGNSQESVTEQDSKDSTYSLSSTLTLSKADYEKHKVYACEVTHQGLSSPVTKSFNRGEC

EC50 [2]: 2.23 nM
B6: anti-PVRIG antibody 151 (antibody, human IgG4 S228P, F234A L235A, V domains shown)
VH: HVQLVESGGGSVQAGGSLRLSCVASASGFTYRPYCMAWFRQAPGKEREAVAGIDIFGGTTYADSVKGRFTASRDNAGFSLFLQMNDLKPEDTAMYYCAAGDSPDGRCPPLGQGLNYWGQGTQVTVSS
notes: no light chain
NK92 killing of K562, killing activity (%), 4 nM antibody [5]: 20.9% | NK92 killing of K562, killing activity (%), 20 nM antibody [5]: 22.9% | NK92 killing of K562, killing activity (%), 100 nM antibody [5]: 24.2%

Further lines, the binder ahead of its results:

B4: positive antibody Tab5 (antibody, human IgG4 S228P, kappa, F234A L235A, V domains shown)
VH: EVQLVESGGGVVKPGGSLRLSCAASGFTFGTSSMNWVRQAPGKGLEWVAVISFDGTEIHYADSVKGRFTISRDNSKSTVFLQMNSLRPDDTALYYCAKGSGNIYFYSGMDVWGQGTTVTVSS
VL: DIQMTQSPSTLSASVGDRVTITCRAGQSISGWLAWFQQKPGKAPNLLIYETSTLESGVPSRFSGSGSGTEYTLTISSLQPDDFATYYCQQYYSYPLTFGQGTKVEIKR
notes: Variable regions of CPA.7.021 (WO2016134333A1) on human IgG4 (S228P/F234A/L235A/K447A) and human kappa constant regions
NK92 killing of K562, killing activity (%), 4 nM antibody [1]: 5.9% | NK92 killing of K562, killing activity (%), 20 nM antibody [1]: 7.9% | NK92 killing of K562, killing activity (%), 100 nM antibody [1]: 10% | binding result [2]: no binding | IC50 [3]: 0.964 nM

B5: anti-PVRIG antibody 39 (antibody, human IgG4 S228P, F234A L235A, V domains shown)
VH: QVQLVESGGGSVQAGGSLRLSCAASRYTSRTDCMGWFRQAPGKEREGVAHIDSDGIPRYVESVKGRFTISQDHAKNTLYLQMNSLKPEDSATYYCVVGFKFGDYCAPNDWGQGTQVTVSS
notes: no light chain
NK92 killing of K562, killing activity (%), 4 nM antibody [5]: 21.3% | NK92 killing of K562, killing activity (%), 20 nM antibody [5]: 22.7% | NK92 killing of K562, killing activity (%), 100 nM antibody [5]: 22.8% | EC50 [2]: 6.97 nM

B7: anti-PVRIG antibody 38 (antibody, human IgG4 S228P, F234A L235A, V domains shown)
VH: QVQLVESGGGSVQAGGSLRLSCAASPSTYGPSDMAWFRQAPGKQREGVATISAAGRLTYYTDSVRGRFTISRDNAKNTMYLQMNSLKPEDTAMYYCAADFAGGSSLFADYKYWGQGTQVTVSS
notes: no light chain
EC50 [2]: 0.34 nM
